Results reported in US20200040059A1.

Each substance was assayed against PD-1 (human) (assay: cell-based or functional assay).

Sequence of Full length ECD of PD-L2 (ligand) (Q9BQ51 20-220): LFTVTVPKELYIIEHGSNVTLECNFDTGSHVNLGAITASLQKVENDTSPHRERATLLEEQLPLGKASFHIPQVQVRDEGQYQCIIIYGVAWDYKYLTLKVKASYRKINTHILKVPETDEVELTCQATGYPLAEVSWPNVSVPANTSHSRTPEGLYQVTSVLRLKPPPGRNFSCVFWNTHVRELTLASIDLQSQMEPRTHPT

Fold increase over wildtype PD-L2 IgV-Fc, MLR IFN gamma	IFN gamma levels pg/mL, MLR	Substance
0.93 fold	1280 pg/mL	PD-L2 IgV-Fc S67L, I85F (Fc fusion)
0.97 fold	1340 pg/mL	PD-L2 IgV-Fc H15Q, T47A, K65R, S67L, Q82R, V89D (Fc fusion)
1.16 fold	1600 pg/mL	PD-L2 IgV-Fc I13V, H15Q, Q82R, V89D (Fc fusion)
1.26 fold	1730 pg/mL	PD-L2 IgV-Fc H15Q, T47A, H69L, Q82R, V89D (Fc fusion)
0.87 fold	1200 pg/mL	PD-L2 IgV-Fc H15Q, T47A, S67L, Q82R, V89D (Fc fusion)
0.96 fold	1320 pg/mL	PD-L2 IgV-Fc H15Q, T47A, Q82R (Fc fusion)
0.89 fold	1220 pg/mL	PD-L2 IgV-Fc I13V, H15Q, Q72H, R76G, I86T (Fc fusion)
0.94 fold	1290 pg/mL	PD-L2 IgV-Fc H15Q, L33P, T47A, S67L, P71S, V89D (Fc fusion)
0.85 fold	1170 pg/mL	PD-L2 IgV-Fc F2L, H15Q, D46E, T47A, Q72H, R76G, Q82R, V89D (Fc fusion)
–	1170 pg/mL	Full length ECD of PD-L2 (ligand)
1.03 fold	1420 pg/mL	PD-L2 IgV-Fc H15Q, S39I, I86T (Fc fusion)
1.1 fold	1510 pg/mL	PD-L2 IgV-Fc H15Q, K65R (Fc fusion)
1.09 fold	1500 pg/mL	PD-L2 IgV-Fc H15Q, V89D (Fc fusion)
1.27 fold	1750 pg/mL	PD-L2 IgV-Fc I13V, H15Q, T37A, E44D, S48C, S67L, Q82R, V89D (Fc fusion)
0.99 fold	1360 pg/mL	PD-L2 IgV-Fc I13V, H15Q, I36V, T47A, S67L, V89D (Fc fusion)
0.88 fold	1210 pg/mL	PD-L2 IgV-Fc H15Q, V31M, S67L, Q82R, V89D (Fc fusion)
0.89 fold	1230 pg/mL	PD-L2 IgV-Fc H15Q, S39I, S67L, V89D (Fc fusion)
1.04 fold	1430 pg/mL	PD-L2 IgV-Fc I13V, H15Q, Q82R (Fc fusion)
1.11 fold	1530 pg/mL	PD-L2 IgV-Fc I12V, I13V, H15Q, T47A, Q82R, V89D (Fc fusion)
0.91 fold	1250 pg/mL	PD-L2 IgV-Fc I13V, H15Q, T47A, R76G, V89D (Fc fusion)
0.95 fold	1310 pg/mL	PD-L2 IgV-Fc S39I, V89D (Fc fusion)
1.07 fold	1470 pg/mL	PD-L2 IgV-Fc I13V, H15Q, T47A, Q72H, R76G (Fc fusion)
0.75 fold	1030 pg/mL	PD-L2 IgV-Fc H15Q, S67L, I86T (Fc fusion)

Fold increase over wildtype PD-L2 IgV-Fc, MLR IFN gamma	IFN gamma levels pg/mL, MLR	Substance
0.77 fold	1060 pg/mL	PD-L2 IgV-Fc H15Q, S67L, Q72H, R76G, V89D (Fc fusion)
1.05 fold	1450 pg/mL	PD-L2 IgV-Fc I13V, H15Q, T47A, Q82R, V89D (SEQ ID NO 1544) (Fc fusion)
0.74 fold	1010 pg/mL	PD-L2 IgV-Fc I13V, H15Q, S67L, I86T (Fc fusion)
0.63 fold	868 pg/mL	PD-L2 IgV-Fc I13V, S67L, V89D (Fc fusion)
1.42 fold	1950 pg/mL	PD-L2 IgV-Fc I13V, Q72H, R76G, I86T (Fc fusion)
1.44 fold	1980 pg/mL	PD-L2 IgV-Fc N24D (Fc fusion)
0.93 fold	1280 pg/mL	PD-L2 IgV-Fc E44D, S67L, Q72H, Q82R, V89D (Fc fusion)
1.13 fold	1560 pg/mL	PD-L2 IgV-Fc E44D, V89D, W91R (Fc fusion)
0.68 fold	936 pg/mL	PD-L2 IgV-Fc I13V, S39I, E44D, Q82R, V89D (Fc fusion)
0.87 fold	1190 pg/mL	PD-L2 IgV-Fc N32D, S67L, V89D (Fc fusion)
0.91 fold	1260 pg/mL	PD-L2 IgV-Fc I13V, H15Q, S39I, E44D, S67L (Fc fusion)
0.68 fold	934 pg/mL	PD-L2 IgV-Fc H15Q, Q72H, Q74R, R76G, I86T (Fc fusion)
1 fold	1370 pg/mL	PD-L2 IgV-Fc I13V, S67L, Q82R, V89D (Fc fusion)
0.61 fold	836 pg/mL	PD-L2 IgV-Fc I13V, H15Q, T47A, E58G, S67L, Q82R, V89D (Fc fusion)
0.68 fold	941 pg/mL	PD-L2 IgV-Fc H15Q, S39I, E44D, Q72H, V75G, R76G, Q82R, V89D (Fc fusion)
1.16 fold	1600 pg/mL	PD-L2 IgV-Fc H15Q, T47A, Q72H, R76G, I86T (Fc fusion)
1.26 fold	1740 pg/mL	PD-L2 IgV-Fc I13V, H15Q, T47A, Q82R, V89D (SEQ ID NO 1545) (Fc fusion)
1.06 fold	1460 pg/mL	PD-L2 IgV-Fc H15Q, T47A, Q72H, R76G (Fc fusion)
1.01 fold	1380 pg/mL	PD-L2 IgV-Fc I13V, H15Q, E44D, V89D (Fc fusion)
1.09 fold	1500 pg/mL	PD-L2 IgV-Fc H15Q, L33H, S67L, R76G, Q82R, V89D (Fc fusion)
1.13 fold	1560 pg/mL	PD-L2 IgV-Fc I13V, H15Q, T47A, S67L, Q72H, R76G, Q82R, V89D (Fc fusion)
0.77 fold	1070 pg/mL	PD-L2 IgV-Fc H15Q, N18D, T47A, Q72H, V73A, R76G, I86T, V89D (Fc fusion)
0.89 fold	1230 pg/mL	PD-L2 IgV-Fc S67L, V89D (Fc fusion)

Fold increase over wildtype PD-L2 IgV-Fc, MLR IFN gamma	IFN gamma levels pg/mL, MLR	Substance
0.92 fold	1270 pg/mL	PD-L2 IgV-Fc H15Q, Q72H, V89D (Fc fusion)
1.29 fold	1780 pg/mL	PD-L2 IgV-Fc G28V, Q72H, R76G, I86T (Fc fusion)
1.34 fold	1850 pg/mL	PD-L2 IgV-Fc H15Q, C23S, I86T (Fc fusion)
1.19 fold	1640 pg/mL	PD-L2 IgV-Fc H15Q, T47A (Fc fusion)
1.04 fold	1430 pg/mL	PD-L2 IgV-Fc H15Q, S67L, R76G (Fc fusion)
0.79 fold	1090 pg/mL	PD-L2 IgV-Fc H15Q, N24S, T47A, Q72H, R76G, V89D (Fc fusion)
0.92 fold	1270 pg/mL	PD-L2 IgV-Fc I13V, H15Q, E44V, T47A, Q82R, V89D (Fc fusion)
1.09 fold	1500 pg/mL	PD-L2 IgV-Fc E44D (Fc fusion)
0.85 fold	1170 pg/mL	PD-L2 IgV-Fc V89D (Fc fusion)
1.25 fold	1720 pg/mL	PD-L2 IgV-Fc I13V, H15Q, V31A, N45S, Q82R, V89D (Fc fusion)
0.86 fold	1190 pg/mL	PD-L2 IgV-Fc I13V, H15Q, R76G, D77N, Q82R, V89D (Fc fusion)
0.74 fold	1020 pg/mL	PD-L2 IgV-Fc S67L, I86T (Fc fusion)
1.01 fold	1390 pg/mL	PD-L2 IgV-Fc H15Q, E44D, R76G, I85F (Fc fusion)
1.17 fold	1620 pg/mL	PD-L2 IgV-Fc Q82R, V89D (Fc fusion)
1.25 fold	1730 pg/mL	PD-L2 IgV-Fc H15Q, R76G, I85F (SEQ ID NO 1500) (Fc fusion)
0.73 fold	1010 pg/mL	PD-L2 IgV-Fc I13V, E44D, Q82R, V89D (Fc fusion)
0.8 fold	1100 pg/mL	PD-L2 IgV-Fc H15Q, T47A, S67L, R76G, Q82R, V89D (Fc fusion)
0.93 fold	1290 pg/mL	PD-L2 IgV-Fc H15Q, N32D, S67L, V89D (Fc fusion)
0.96 fold	1320 pg/mL	PD-L2 IgV-Fc H15Q, S67L, R76G, I85F (Fc fusion)
0.79 fold	1090 pg/mL	PD-L2 IgV-Fc I13V, H15Q, T47A, Q72H, R76G, I86T (Fc fusion)
1.04 fold	1440 pg/mL	PD-L2 IgV-Fc H15Q, R76G, I85F (SEQ ID NO 1505) (Fc fusion)
